For 116 sequences, protein stability index results are on record in the supplement of paper PMC10724198.

± gives the standard deviation of the averaged measurements.
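Further: PSI is a weighted mean of sequencing reads over stability bins, variants kept only with over 10 reads, mCherry proximal and sfGFP distal, peptide attached via GGGS linker.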

The data set concerns Saccharomyces cerevisiae. The experiment in a line: protein stability index of tFT-peptide fusion (C-terminal peptide) (PSI (0-1 scale)); higher = more stable (slower turnover). The conditions noted are these: genetic background: wild type; temperature: 30 C.
Sequence GVYSVACVSGSV showed a protein stability index of 0.64 ± 0.014. As to GWAFGVRGMIKK, the protein stability index amounted to 0.74 ± 0.043. GWAVGGGGGRGR showed a protein stability index of 0.617 ± 0.057. GWCAPLGLLLVL had a protein stability index of 0.539 ± 0.031. For GWCGGLWRFGWG, the protein stability index is 0.723 ± 0.092. The result for GWDCKGNDCWNG reads 0.693 ± 0.055. As for GWDQSGVVFVCG, the figure is 0.605 ± 0.017; as for GWDSGHLVVMEI, 0.715 ± 0.033. GWESERWSTLHK: the protein stability index amounted to 0.763 ± 0.024. In turn, GWEVGGGRLGVV returned a protein stability index of 0.716 ± 0.11. GWGCGGGGAWSG came in with a protein stability index of 0.767 ± 0.018. For GWGFLGGTVAAV, the protein stability index amounted to 0.697 ± 0.035. Consider GWGGLFGCWVCG, for which the protein stability index stood at 0.656 ± 0.015. Take GWGIFRISSFGT: the protein stability index was found to be 0.713 ± 0.018. GWGPSSAGGAGG returned a protein stability index of 0.752 ± 0.12.

Consider GWGWGSMDLRDR, for which the protein stability index stood at 0.6919 ± 0.0024. Regarding GWIGVFGLFGCG, the protein stability index is 0.752 ± 0.083.

For the sequence GWKLGAVRRGVI, the protein stability index is 0.706 ± 0.015. GWLGGGVRLGRL registered a protein stability index of 0.714 ± 0.067. Sequence GWRACWVRAPRW showed a protein stability index of 0.708 ± 0.018. In turn, GWRRSWVWDVGG came in with a protein stability index of 0.699 ± 0.027. GWRSGGVYDGNI returned a protein stability index of 0.6572 ± 0.0027.

In turn, GWSVDGVVLGAP came in with a protein stability index of 0.728 ± 0.046. As for GWVFCLFPVGGL, the figure is 0.607 ± 0.051; as for GWVGGCGGGRGI, 0.683 ± 0.0092. GWVHGEDMAVFG showed a protein stability index of 0.7 ± 0.0049. For the sequence GWVVSGIFGRCC, the protein stability index was 0.689 ± 0.013. In the case of GWWLFRSRWWHE, the protein stability index is 0.573 ± 0.022.

Regarding GWWWGGGGAWSG, the protein stability index stood at 0.718 ± 0.071.

Consider GYGWGVGGGFGR, for which the protein stability index was determined as 0.691 ± 0.019. Take GYLEGMVYRESD: the protein stability index came to 0.689 ± 0.025. The result for GYLNCFGYVWGP reads 0.653 ± 0.04; that for GYSSPPLITIPH, 0.659 ± 0.023; that for HALFPRAPSPPW, 0.7513 ± 0.0055. In turn, HAVRQNDTYKHG gave a protein stability index of 0.74 ± 0.087. As for HCPRPRPTCRPP, the figure is 0.615 ± 0.1. For HCSGGFRCPPLV, the protein stability index turned out to be 0.6862 ± 0.0046. In turn, HDEGLEGLTVVF came in with a protein stability index of 0.675 ± 0.019.

HECVRGLSFVLV returned a protein stability index of 0.668 ± 0.081. HEEPEVPEIQHV displayed a protein stability index of 0.743 ± 0.063.

HFSRNYINENVS registered a protein stability index of 0.716 ± 0.04. In the case of HFWGCCRRRCLK, the protein stability index came to 0.66 ± 0.051. As for HGKGLKEKRVEG, the protein stability index amounted to 0.672 ± 0.041. As to HGKNLALNEKCW, the protein stability index was determined as 0.691 ± 0.034.

HGSYYSAVWGKG showed a protein stability index of 0.684 ± 0.096. HHRVLRCNNPFR came in with a protein stability index of 0.731 ± 0.12. HHSAPARLAFRY returned a protein stability index of 0.673 ± 0.023. Consider HHTDSLRPTAPH, for which the protein stability index amounted to 0.73 ± 0.054. The sequence HISHPTGDVQTP yielded a protein stability index of 0.627 ± 0.083.

The sequence HKSRHSPKPPFT gave a protein stability index of 0.6677 ± 0.0026.

Sequence HLPLLLFHPPLH registered a protein stability index of 0.637 ± 0.0051. Sequence HLPPPPRITVVP returned a protein stability index of 0.716 ± 0.073. The result for HLPPPPSPSPPP reads 0.686 ± 0.012; that for HLQLCAPISTTD, 0.652 ± 0.07; that for HLTVSRIRLISK, 0.658 ± 0.079. As for HLYARHCPPPNR, the figure is 0.677 ± 0.052. On to HNKSGEKKKKEA, for which the protein stability index worked out at 0.697 ± 0.0076. Sequence HNPRTCRAPLSL had a protein stability index of 0.671 ± 0.0079. For HPAAPPPPPPPR, the protein stability index is 0.732 ± 0.066. The result for HPAPNPGFHFDR reads 0.733 ± 0.065. The result for HPAPVPSAPSDA reads 0.678 ± 0.054; that for HPDPSPPTKPPP, 0.68 ± 0.031; that for HPFASRSRFTPR, 0.753 ± 0.063. As for HPGLRLENVNPQ, the figure is 0.702 ± 0.014; as for HPHPPQSTNPYT, 0.677 ± 0.058; as for HPHVPAPRVPHP, 0.721 ± 0.047. The sequence HPNPYTTPGTPA yielded a protein stability index of 0.625 ± 0.0078.

In turn, HPPPPAPTPSSR showed a protein stability index of 0.711 ± 0.04. Sequence HPPPPPRSLPLP returned a protein stability index of 0.692 ± 0.08.

Take HPPPPPSPPGLP: the protein stability index came out at 0.6578 ± 0.0013. As for HPPSSSHTQPPR, the figure is 0.683 ± 0.014; as for HPPTPPPPFPPP, 0.659 ± 0.018. As for HPSAVPHPPDIV, the protein stability index worked out at 0.659 ± 0.046. As for HPSPTAPPSASN, the figure is 0.66 ± 0.022; as for HPTAILLVPLLL, 0.597 ± 0.029; as for HQCVIVNFEKYD, 0.669 ± 0.038. The sequence HQSSHTRMARSL had a protein stability index of 0.723 ± 0.013. As for HRIHRSLLTGGR, the protein stability index is 0.708 ± 0.021. As for HRQTAKLKRIVI, the figure is 0.651 ± 0.093; as for HRREEDQRPYSR, 0.768 ± 0.021. As for HRTLPPPPLTVP, the protein stability index amounted to 0.579 ± 0.027. Take HRVRICWVPRSR: the protein stability index stood at 0.674 ± 0.027. As for HSCLVRSDPPPS, the figure is 0.704 ± 0.12. In turn, HSPSHPGSPHAC gave a protein stability index of 0.7 ± 0.033.

In turn, HSPSKLSSSTAT had a protein stability index of 0.681 ± 0.032.

As for HSRSRAEPHHPP, the protein stability index turned out to be 0.555 ± 0.037.

Sequence HSTSLLPSGSWF displayed a protein stability index of 0.734 ± 0.016. The result for HSVEPARSSSAM reads 0.669 ± 0.07; that for HTANYILPLIHI, 0.635 ± 0.044. As for HTRSPVPPPPPS, the protein stability index turned out to be 0.657 ± 0.0019. HVDGGAVLLEGQ registered a protein stability index of 0.67888 ± 0.00049. The result for HVGGISSPLTPC reads 0.656 ± 0.025; that for HVGYLIMVYRGR, 0.646 ± 0.072; that for HVSPSPYPPGYP, 0.697 ± 0.026.

HWGRGGRSGGDR showed a protein stability index of 0.697 ± 0.025. Turning to HWHLIKIKLKEK, the protein stability index stood at 0.742 ± 0.043.

For HWYLRCAVCEGV, the protein stability index amounted to 0.651 ± 0.022.

Consider HYVQARMRSAVP, for which the protein stability index amounted to 0.636 ± 0.091. As to IAAVQSGGRVAG, the protein stability index amounted to 0.462 ± 0.057.

IAGMFSLKFGVP: the protein stability index came out at 0.714 ± 0.082. The sequence IAKLLHSPSTFT came in with a protein stability index of 0.688 ± 0.014.

IAPLMSSILYPI gave a protein stability index of 0.685 ± 0.025. Turning to ICHLTIFHLRRL, the protein stability index is 0.6151 ± 0.0037. The result for ICIKKNTLTKTE reads 0.669 ± 0.012; that for ICLGCFEEYEGV, 0.812 ± 0.077. Consider ICSQLVVAWEGV, for which the protein stability index turned out to be 0.714. In the case of IDFNWESSTMNI, the protein stability index came out at 0.7438 ± 0.0058.

Regarding IDGGSAWSAVSL, the protein stability index amounted to 0.687 ± 0.018. In turn, IEATHKIDRCKD came in with a protein stability index of 0.676 ± 0.0086.

Consider IEPTFDGSLCLG, for which the protein stability index stood at 0.7 ± 0.0094. IESASRSTTGGI had a protein stability index of 0.77 ± 0.14. Consider IFPFKDDVPFVS, for which the protein stability index was 0.684 ± 0.0015. IFPNSGKIEVLA showed a protein stability index of 0.574 ± 0.016.

IFPSIPTLLPPS came in with a protein stability index of 0.701 ± 0.041. As for IFRASTGASYRT, the figure is 0.5738 ± 0.0034; as for IFWGFSFRGGGG, 0.667 ± 0.012.
